Measurements taken from the supplement of paper PMC12042874.
± gives the uncertainty stated by the source.

Assay: amyloid nucleation score (Sup35N fusion, yeast selection) (log enrichment); library NNK3; higher = more nucleation; inactive = no reads after selection
Method in brief: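 The nucleation score is the log enrichment of output over input reads, calculated with DiMSum and centred on the mode score of non-aggregating sequences. Sequences with under 100 input reads were excluded. Reads came from Illumina sequencing of plasmid inserts from psi-negative yeast expressing Sup35N fused to peptides of 20 random codons, induced 24 hours with 100 μM copper sulfate and grown 7 days at 30°C without adenine and uracil.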

Row | Substance | amyloid nucleation score
1 | SGLFWRTLEPLNSVDRFYG | inactive
2 | VYPWFA | inactive
3 | DYCGDCMILFCTLVGYDRCT | 2.06 ± 0.068
4 | PGDTQITYTGLSEFWCPGVA | inactive
5 | IVDCLFK | inactive
6 | SWRDILVKRHS | inactive
7 | LIVNSRSVFNITHFLNINYQ | 2.1 ± 0.077
8 | LKRNVNYVNLNVFRLFLK | inactive
9 | INYLFASRSKQEQLLDWRFS | inactive
10 | SSVMFVRIVLRIGGYHLAAR | inactive
11 | LSHYVMVTYRAKGRMAGRIW | inactive
12 | KYVYYSFLERSFDYMYFSRQ | inactive
13 | DNSVALIDYSWAVTRI | inactive
14 | TLSRFPLGNCF | inactive
15 | VFYIIW | 1.89 ± 0.063
16 | VRFLGFHKCVILAIDYDQFL | 1.67 ± 0.1
17 | SWKARDYRGSVLGSIIRDFN | inactive
18 | VGPRGGNVSEGPPRVWVNGC | inactive
19 | YKIRFSLYVEHSVVLYVQY | inactive
20 | SFSWLTFPRGSDNFQDWHCI | 0.56 ± 0.31
21 | LHVSWGGLSGDTLFTRKVGV | inactive
22 | WSSSW | inactive
23 | STTMAFAAIVFEIYSVTSWF | inactive
24 | HIWVCLEVGVGKSILVLLLF | inactive
25 | VHVLVVWYFAFTCVCRVPFG | 0.228 ± 0.85
26 | AGEKPNSIFYSTHSSRSFSN | 0.965 ± 0.17
27 | NNTLV | inactive

Row | Substance | amyloid nucleation score
28 | TMDTYSVPPHNFGMLCYGL | inactive
29 | FVKCSRMF | inactive
30 | KIMSYHIHVMFLLDYMKDRS | 1.28 ± 0.15
31 | CSNRFSNHFMYYVSMLGDGL | inactive
32 | MLCTTLRNYMTSSICFIRYQ | inactive
33 | RWFDTFLCLSR | inactive
34 | ITQWWVYIKNF | inactive
35 | YLTVCRGRNTEGYGWEVNS | inactive
36 | NMYLSMSLIFNTNYLPGMIS | inactive
37 | RYGLVVIAVVSAVHDGDACS | inactive
38 | FYFGTG | inactive
39 | VRSHPCSGGTLVGWDSYW | 1.01 ± 0.14
40 | AYSFNSFRASGRHLWFTVCP | inactive
41 | NACTF | inactive
42 | LGRPYQHVWYIHSEVKGVEY | 0.116 ± 0.28
43 | RINMELLWIFGGSTWFINRG | 1.93 ± 0.084
44 | SLLLTSWESVYIMRGLDRTI | 0.086 ± 0.42
45 | SLETMFMEKKRTSPNMVMLW | -0.42 ± 0.73
46 | KSVVGFFVSARYCCTLGTGG | inactive
47 | LSEIGIPVAVSFKPADSLGL | inactive
48 | YVGTYNFICEAYALDMTEQW | inactive
49 | NLFLRFIVTLWDRFCPYFYQ | inactive
50 | GGLDFSSLSLMWYTQSSHKV | inactive
51 | ILSVSLVVHRKRTTWISNYH | inactive
52 | ARLHVILCDGCHVRMCPEMG | inactive
53 | WVKPSSFWGFERNTYDIYIG | -0.176 ± 0.62
54 | NLMGRCTEFRKYI | inactive

Row | Substance | amyloid nucleation score
55 | IRSERTLDSATWDPFVVLKD | inactive
56 | AEHYVRYRRCSATWRICWMY | inactive
57 | SNVTRMVRFFWVEGPTEYWY | inactive
58 | FRVYQNIDTERDSRTSPKES | inactive
59 | HNKDDK | inactive
60 | LTGCRL | inactive
61 | YYDMIMLPAKSDANRCYGCA | inactive
62 | LRAFMYLFTYKTWIRTSNGV | inactive
63 | TDMIQYKHRLYTIILSNYAR | inactive
64 | GIKVLTTCGHKKFVGINSVM | inactive
65 | CYPVSVQYNGV | inactive
66 | CIIFYCIYGFN | 3.04 ± 0.073
67 | YSGLGSIVTNGYSYIYGEVL | inactive
68 | NRFCLRSTLSYSWYGDRSWA | 0.185 ± 0.7
69 | VIKDYSQCMSWHGVESSWRL | -0.31 ± 0.68
70 | ICDFCQQCSVNERKTLNYSA | inactive
71 | LYETSRSFPH | inactive
72 | YALSVLVSRYQWSGWHYLYP | inactive
73 | VALAGNYCSANVVHCMFLNL | inactive
74 | HLNLTHNWNVYGKDLNGQFF | 2.13 ± 0.072
75 | GMRFRLMEKFHRLFYYSNMT | inactive
76 | CILYYLNSSMVIGTCLFILN | 1.36 ± 0.085
77 | VLFCRFSSWV | 0.739 ± 0.26
78 | VSRYGYCCRRIYAELHGFPD | inactive
79 | YWLIRDLWRGRGS | inactive
